Assays:
[1] = target: wild-type CfaB, mature form, with N-terminal hexahistidine tag (^wtCfaB, (his)6CfaB) (enterotoxigenic Escherichia coli (ETEC)) (UniProt E3PPC4); test: pull-down
[2] = target: wild-type CfaB, mature form, with N-terminal hexahistidine tag (^wtCfaB, (his)6CfaB) (enterotoxigenic Escherichia coli (ETEC)) (UniProt E3PPC4)

“wild-type CfaA with C-terminal Strep-tag (^wtCfaA, CfaA(Strep)) (natural protein)” was tested, and the ratio between CfaA and CfaB (densitometry of the pull-down) [1] was 0.6 and the kf, fast-phase rate constant of chaperone-assisted refolding of denatured CfaB [2] was 0.54 s⁻¹.
